Reference: paper PMC8538103

How the values were obtained:
[1] = target: neuraminidase from A/BrevigMission/1/1918 (H1N1), residues 83 to 468 of the ectodomain, construct pTT5-NA (+SS −TET) (influenza A virus A/BrevigMission/1/1918 (H1N1)); assay: dynamic light scattering; in solution; data not shown
[2] = target: neuraminidase from A/BrevigMission/1/1918 (H1N1), residues 83 to 468 of the ectodomain, construct pTT5-NA (+SS −TET) (influenza A virus A/BrevigMission/1/1918 (H1N1)); assay: crystal structure

neuraminidase from A/BrevigMission/1/1918 (H1N1), residues 83 to 468 of the ectodomain, construct pTT5-NA (+SS −TET) (domain or fragment)
stoichiometry N [1]: 4 | stoichiometry N [2]: 4
